Data from patent publication US20190002588A1 (NATIONAL UNIVERSITY CORPORATION CHIBA UNIVERSITY, published 2019).
Where a chain is given by its changes, count along the chain named. Names and notes keep the numbering of the source. One block for each binder: values may come before it.

Legend:
[1] = molecular target: T1, human Myl12b-His (human, UniProt O14950 1-172); experiment: ELISA, human Myl12b-His coated, anti-human IgG-HRP
T1 construct: Made in E. coli; GST tag cleaved with PreScission Protease; DTT-treated monomer
T1 sequence: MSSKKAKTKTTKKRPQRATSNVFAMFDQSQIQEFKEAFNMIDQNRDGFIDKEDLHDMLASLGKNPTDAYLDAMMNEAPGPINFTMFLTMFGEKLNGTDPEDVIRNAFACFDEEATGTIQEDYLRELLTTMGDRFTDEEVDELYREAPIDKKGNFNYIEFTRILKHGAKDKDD
Procedure: (§1) The binding ability of chimeric and humanized antibodies prepared from Antibody A against human Myl12a and Myl12b was evaluated following the steps below by ELISA. Human Myl3-His, human Myl9-His, human Myl12a-His and human Myl12b-His were coated onto the wells of a 96-well plate (Nunc), respectively. After an overnight incubation at 4° C., the wells were blocked at room temperature for one hour with 1× Block Ace (DS Pharma Biomedical Co., Ltd.). After washing three times with 0.02% Tween 20/PBS, the chimeric and humanized antibodies were diluted at the concentration of 0.01, 0.1 and 1 μg/mL, respectively and added to the wells. After incubation at room temperature for one hour and washing three times, horseradish peroxidase-labeled anti-human IgG antibody (Jackson ImmunoResearch Laboratories) was added, and this was incubated at room temperature for one hour. After washing 5 times, TMBZ (3,3′,5,5′-tetramethylbenzidine) solution was added to the wells, and this was incubated for 5-20 minutes at room temperature. An equal amount of reaction quenching solution (2N H₂SO₄) was added to the wells, and absorbance at 450 nm was read with a microplate reader (Thermo Scientific).

[2] = molecular target: T2, human Myl9-His (human, UniProt P24844 2-172, limits assumed); experiment: ELISA, human Myl9-His coated, anti-human IgG-HRP
T2 construct: Made in E. coli; the GST tag was cleaved with PreScission Protease
T2 sequence: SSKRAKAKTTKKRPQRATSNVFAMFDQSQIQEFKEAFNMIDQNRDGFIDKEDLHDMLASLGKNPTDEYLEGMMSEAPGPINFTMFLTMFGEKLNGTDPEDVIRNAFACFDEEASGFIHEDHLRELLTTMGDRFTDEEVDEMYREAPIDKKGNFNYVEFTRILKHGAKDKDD
Procedure: (§2) The binding ability against human Myl9 was evaluated following the steps below by ELISA. Human Myl3-His and human Myl9-His were coated onto the wells of a 96-well plate (Nunc). After an overnight incubation at 4° C., the wells were blocked at room temperature for one hour with 1× Block Ace (DS Pharma Biomedical Co., Ltd.). After washing three times with 0.02% Tween 20/PBS, seven serial dilutions by six folds of the chimeric and humanized antibodies were made from a concentration of 10 μg/mL and added to the wells. After incubation at room temperature for one hour and washing three times, horseradish peroxidase-labeled anti-human IgG antibody (Jackson ImmunoResearch Laboratories) was added, and this was incubated at room temperature for one hour. After washing 5 times, TMBZ (3,3′,5,5′-tetramethylbenzidine) solution was added to the wells, and this was incubated for 5-20 minutes at room temperature. An equal amount of reaction quenching solution (2N H₂SO₄) was added to the wells, and absorbance at 450 nm was read with a microplate reader (PerkinElmer).

[3] = molecular target: T3, human Myl3-His (human, UniProt P08590 2-195, limits assumed); experiment: ELISA, human Myl3-His coated, anti-human IgG-HRP
T3 construct: Made in E. coli; the GST tag was cleaved with PreScission Protease
T3 sequence (P08590 2-195 limits assumed): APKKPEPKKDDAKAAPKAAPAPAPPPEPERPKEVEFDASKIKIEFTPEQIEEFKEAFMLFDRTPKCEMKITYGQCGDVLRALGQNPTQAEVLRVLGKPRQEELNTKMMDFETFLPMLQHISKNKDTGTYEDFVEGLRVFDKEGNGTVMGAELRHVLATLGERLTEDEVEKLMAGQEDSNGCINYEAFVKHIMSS
Procedure: as §2

[4] = molecular target: T4, human Myl12a-His (human, UniProt P19105 1-171); experiment: ELISA, human Myl12a-His coated, anti-human IgG-HRP
T4 construct: Made in E. coli; GST tag cleaved with PreScission Protease; DTT-treated monomer
T4 sequence: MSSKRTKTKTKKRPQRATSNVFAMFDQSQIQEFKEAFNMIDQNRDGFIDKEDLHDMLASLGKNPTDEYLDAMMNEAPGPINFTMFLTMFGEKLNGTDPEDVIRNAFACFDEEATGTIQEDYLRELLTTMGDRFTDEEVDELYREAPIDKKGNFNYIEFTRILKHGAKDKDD
Procedure: as §1

[5] = molecular target: T3, human Myl3-His; experiment: ELISA at 0.01, 0.1 and 1 µg/mL, human Myl3-His coated, anti-human IgG-HRP
Procedure: as §1

B1: Humanized antibody No. 131 (antibody, human IgG2, kappa)
heavy: QVQLVQSGSELKKPGASVKVSCKASGYTFTDYEMHWVRQAPGQGLEWMGAIDPETGGTAYNQKFKGRFVFSLDTSVSTAYLQISSLKAEDTAVYYCADYDYDGFAYWGQGTLVTVSSASTKGPSVFPLAPCSRSTSESTAALGCLVKDYFPEPVTVSWNSGALTSGVHTFPAVLQSSGLYSLSSVVTVPSSNFGTQTYTCNVDHKPSNTKVDKTVERKCCVECPPCPAPPAAAPSVFLFPPKPKDTLMISRTPEVTCVVVDVSHEDPEVQFNWYVDGVEVHNAKTKPREEQFNSTFRVVSVLTVVHQDWLNGKEYKCKVSNKGLPAPIEKTISKTKGQPREPQVYTLPPSREEMTKNQVSLTCLVKGFYPSDIAVEWESNGQPENNYKTTPPMLDSDGSFFLYSKLTVDKSRWQQGNVFSCSVMHEALHNHYTQKSLSLSPG
light: DIVMTQSPLSLPVTPGEPASISCRSSQSLVHSNGNTYLHWYLQKPGQSPQLLISKVSNRFSGVPDRFSGSGSGTDFTLKISRVEAEDVGVYFCSQNTHVPPLTFGGGTKVEIKRTVAAPSVFIFPPSDEQLKSGTASVVCLLNNFYPREAKVQWKVDNALQSGNSQESVTEQDSKDSTYSLSSTLTLSKADYEKHKVYACEVTHQGLSSPVTKSFNRGEC
notes: human IgG2 (V234A, G237A, C-terminal Lys deleted) / kappa; Expi293F, Protein A purified; also called HK3-2/L1-4
binding result [1]: binds | binding result [2]: binds | binding result [3]: no binding (tested: 10 µg/mL) | binding result [4]: binds

B2: Humanized antibody No. 132 (antibody, human IgG2, kappa)
heavy: B1 heavy
light: B1 light with I2V
notes: human IgG2 (V234A, G237A, C-terminal Lys deleted) / kappa; Expi293F, Protein A purified; also called HK3-2/L1-A
binding result [1]: binds | binding result [2]: binds | binding result [3]: no binding (tested: 10 µg/mL) | binding result [4]: binds

B3: Humanized antibody No. 133 (antibody, human IgG2, kappa)
heavy: B1 heavy
light: B1 light with P12S, V13I, P18Q
notes: human IgG2 (V234A, G237A, C-terminal Lys deleted) / kappa; Expi293F, Protein A purified; also called HK3-2/L1-5
binding result [1]: binds | binding result [2]: binds | binding result [3]: no binding (tested: 10 µg/mL) | binding result [4]: binds

B4: Humanized antibody No. 134 (antibody, human IgG2, kappa, V domains shown)
VH: QVQLVQSGSELKKPGASVKVSCKASGYTFTDYEMHWVRQAPGQGLEWMGAIDPETGGTAYNQKFKGRFVFSLDTSVSTAYLQISSLKAEDTAVYYCADYDYDGFAYWGQGTLVTVSS
VL: DIVMTQTPLSSPVTLGQPASISCRSSQSLVHSNGNTYLHWYQQRPGQPPRLLISKVSNRFSGVPDRFSGSGAGTDFTLKISRVEAEDVGVYFCSQNTHVPPLTFGGGTKVEIKR
notes: human IgG2 (V234A, G237A, C-terminal Lys deleted) / kappa; Expi293F, Protein A purified; also called HK3-2/L4-2
binding result [1]: binds | binding result [2]: binds | binding result [3]: no binding (tested: 10 µg/mL) | binding result [4]: binds

Results, then the binder that gave them:

binding result [5]: no binding (tested: 1 µg/mL) | binding result [1]: binds | binding result [2]: binds | binding result [4]: binds
B5: chimeric antibody prepared from Antibody A (antibody, human IgG2, kappa, V domains shown)
VH: QVQLQQSGAEVVRPGASVTLSCKASGYTFTDYEMHWVKQTPVHGLEWIGAIDPETGGTAYNQKFKGKAILTADKSSNTAYMELRSLTSEDSAVYYCTDYDYDGFAYWGQGTLVTVSA
VL: DVVMTQTPLSLPVSLGDQASISCRSSQSLVHSNGNTYLHWYLQKPGRSPKLLISKVSNRFSGVPDRFSGSGSGTDFTLKITRVEAEDLGVYFCSQNTHVPPLTFGAGTKLELKR
notes: VH and VL amino acid numbers 13 and 15 are deduced as for Antibody A

binding result [1]: binds | binding result [2]: binds | binding result [3]: no binding (tested: 10 µg/mL) | binding result [4]: binds
B6: Humanized antibody No. 117 (antibody, human IgG2, kappa, V domains shown)
VH: QVQLVQSGAEVKKPGASVKVSCKASGYTFTDYEMHWVRQAPGQGLEWMGAIDPETGGTAYNQKFKGRATMTADTSTSTAYMELSSLRSEDTAVYYCADYDYDGFAYWGQGTLVTVSS
VL: DIVMTQSPLSLSITPGEQASISCRSSQSLVHSNGNTYLHWYLQKPGQSPQLLISKVSNRFSGVPDRFSGSGSGTDFTLKISRVEAEDVGVYFCSQNTHVPPLTFGGGTKVEIKR
notes: human IgG2 (V234A, G237A, C-terminal Lys deleted) / kappa; Expi293F, Protein A purified; also called HK2-6/L1-5

binding result [1]: binds | binding result [2]: binds | binding result [3]: no binding (tested: 10 µg/mL) | binding result [4]: binds
B7: Humanized antibody No. 128 (antibody, human IgG2, kappa, V domains shown)
VH: B6 VH
VL: B4 VL
notes: human IgG2 (V234A, G237A, C-terminal Lys deleted) / kappa; Expi293F, Protein A purified; also called HK2-6/L4-2

binding result [1]: binds | binding result [2]: binds | binding result [3]: no binding (tested: 10 µg/mL) | binding result [4]: binds
B8: Humanized antibody No. 122 (antibody, human IgG2, kappa, V domains shown)
VH: B6 VH with A16S, N61A, K65Q, M70I, T74K, S84R
VL: B4 VL
notes: human IgG2 (V234A, G237A, C-terminal Lys deleted) / kappa; Expi293F, Protein A purified; also called HA1-4/L4-2
